From PMC9714913

Molecular target: AMC009 SOSIP gp120-gp41 protomer (HIV-1 (clade B, donor H18877))
Assay: cryo-EM structure; AMC009 SOSIPv5.2 trimer with 10-fold molar excess of ACS114 Fab for 12 hours at RT, then 6-fold molar excess of ACS122 Fab for 15 minutes; complex purified by SEC in TBS; ~4.0 Å

AMC009 SOSIP gp120-gp41 protomer (complex)
stoichiometry N: 3
